Laboratory results reported in patent US20060241020.

T1: EFpYGAFG (Sap1 example phosphopeptide, G form of EFpYGAFA/G)
T1 chain: EFYGAFG

T2: EFpYGAFA (Sap1 example phosphopeptide, A form of EFpYGAFA/G)
T2 chain: EFYGAFA

T3: AEGELpYGSLYA (Sap1 example phosphopeptide)
T3 chain: AEGELYGSLYA


Key:
[1] = target: the GST-peptide (PTP-β clone as GST fusion in the dephosphorylation assay)
[2] = target: T1, EFpYGAFG (Sap1 example phosphopeptide, …)
[3] = target: all the clones tested (PTP-Sap1 clones as GST-peptides in the dephosphorylation assay)
[4] = target: T2, EFpYGAFA (Sap1 example phosphopeptide, …)
[5] = target: T3, AEGELpYGSLYA (Sap1 example …)

Protein	dephosphorylation assay on GST-PEP constructs [1]	Km [2]	dephosphorylation assay on GST-PEP constructs [3]	Km [4]	Km [5]
PTP-β wild type (GST fusion of the catalytic domain) (protein) RQKVSHGRERPSARLSIRRDRPLSVHLNLGQKGNRKTSCPIKINQFEGHFMKLQADSNYLLSKEYEELKDVGRNQSCDIALLPENRGKNRYNNILPYDATRVKLSNVDDDPCSDYINASYIPGNNFRREYIVTQGPLPGTKDDFWKMVWEQNVHNIVMVTQCVEKGRVKCDHYWPADQDSLYYGDLILQMLSESVLPEWTIREFKICGEEQLDAHRLIRHFHYTVWPDHGVPETTQSLIQFVRTVRDYINRSPGAGPTVVHCSAGVGRTGTFIALDRILQQLDSKDSVDIYGAVHDLRLHRVHMVQTECQYVYLHQCVRDVLRARKLRSEQENPLFPIYENVNPEYHRDPVYSRH	the dephosphorylation of the GST-peptide was weak (not shown) as compared to the same experiment on PTP-Sap1	–	–	–	–
PTP-Sap1 wild type (GST fusion of the catalytic domain) (protein) LKRRNKKKQQKPELRDLVFSSPGDIPAEDFADHVRKNERDSNCGFADEYQQLSLVGHSQSQMVASASENNAKNRYRNVLPYDWSRVPLKPIHEEPGSDYINASFMPGLWSPQEFIATQGPLPQTVGDFWRLVWEQQSHTLVMLTNCMEAGRVKCEHYWPLDSQPCTHGHLRVTLVGEEVMENWTVRELLLLQVEEQKTLSVRQFHYQAWPDHGVPSSPDTLLAFWRMLRQWLDQTMEGGPPIVHCSAGVGRTGTLIALDVLLRQLQSEGLLGPFSFVRKMRESRPLMVQTEAQYVFLHQCILRFLQQSAQAPAEKEVPYEDVENLIYENVAAIQAHKLEV	–	Km=7.0 uM	Dephosphorylation assays showed a conserved enzymatic activity for all the clones tested (not shown)	Km=7.0 uM	Km=7.6 uM
